Source: IntAct's records for PubMed 19098916

Molecular target: brr2_yeast BRR2 (UniProt P32639)
Sequence (P32639 whole entry): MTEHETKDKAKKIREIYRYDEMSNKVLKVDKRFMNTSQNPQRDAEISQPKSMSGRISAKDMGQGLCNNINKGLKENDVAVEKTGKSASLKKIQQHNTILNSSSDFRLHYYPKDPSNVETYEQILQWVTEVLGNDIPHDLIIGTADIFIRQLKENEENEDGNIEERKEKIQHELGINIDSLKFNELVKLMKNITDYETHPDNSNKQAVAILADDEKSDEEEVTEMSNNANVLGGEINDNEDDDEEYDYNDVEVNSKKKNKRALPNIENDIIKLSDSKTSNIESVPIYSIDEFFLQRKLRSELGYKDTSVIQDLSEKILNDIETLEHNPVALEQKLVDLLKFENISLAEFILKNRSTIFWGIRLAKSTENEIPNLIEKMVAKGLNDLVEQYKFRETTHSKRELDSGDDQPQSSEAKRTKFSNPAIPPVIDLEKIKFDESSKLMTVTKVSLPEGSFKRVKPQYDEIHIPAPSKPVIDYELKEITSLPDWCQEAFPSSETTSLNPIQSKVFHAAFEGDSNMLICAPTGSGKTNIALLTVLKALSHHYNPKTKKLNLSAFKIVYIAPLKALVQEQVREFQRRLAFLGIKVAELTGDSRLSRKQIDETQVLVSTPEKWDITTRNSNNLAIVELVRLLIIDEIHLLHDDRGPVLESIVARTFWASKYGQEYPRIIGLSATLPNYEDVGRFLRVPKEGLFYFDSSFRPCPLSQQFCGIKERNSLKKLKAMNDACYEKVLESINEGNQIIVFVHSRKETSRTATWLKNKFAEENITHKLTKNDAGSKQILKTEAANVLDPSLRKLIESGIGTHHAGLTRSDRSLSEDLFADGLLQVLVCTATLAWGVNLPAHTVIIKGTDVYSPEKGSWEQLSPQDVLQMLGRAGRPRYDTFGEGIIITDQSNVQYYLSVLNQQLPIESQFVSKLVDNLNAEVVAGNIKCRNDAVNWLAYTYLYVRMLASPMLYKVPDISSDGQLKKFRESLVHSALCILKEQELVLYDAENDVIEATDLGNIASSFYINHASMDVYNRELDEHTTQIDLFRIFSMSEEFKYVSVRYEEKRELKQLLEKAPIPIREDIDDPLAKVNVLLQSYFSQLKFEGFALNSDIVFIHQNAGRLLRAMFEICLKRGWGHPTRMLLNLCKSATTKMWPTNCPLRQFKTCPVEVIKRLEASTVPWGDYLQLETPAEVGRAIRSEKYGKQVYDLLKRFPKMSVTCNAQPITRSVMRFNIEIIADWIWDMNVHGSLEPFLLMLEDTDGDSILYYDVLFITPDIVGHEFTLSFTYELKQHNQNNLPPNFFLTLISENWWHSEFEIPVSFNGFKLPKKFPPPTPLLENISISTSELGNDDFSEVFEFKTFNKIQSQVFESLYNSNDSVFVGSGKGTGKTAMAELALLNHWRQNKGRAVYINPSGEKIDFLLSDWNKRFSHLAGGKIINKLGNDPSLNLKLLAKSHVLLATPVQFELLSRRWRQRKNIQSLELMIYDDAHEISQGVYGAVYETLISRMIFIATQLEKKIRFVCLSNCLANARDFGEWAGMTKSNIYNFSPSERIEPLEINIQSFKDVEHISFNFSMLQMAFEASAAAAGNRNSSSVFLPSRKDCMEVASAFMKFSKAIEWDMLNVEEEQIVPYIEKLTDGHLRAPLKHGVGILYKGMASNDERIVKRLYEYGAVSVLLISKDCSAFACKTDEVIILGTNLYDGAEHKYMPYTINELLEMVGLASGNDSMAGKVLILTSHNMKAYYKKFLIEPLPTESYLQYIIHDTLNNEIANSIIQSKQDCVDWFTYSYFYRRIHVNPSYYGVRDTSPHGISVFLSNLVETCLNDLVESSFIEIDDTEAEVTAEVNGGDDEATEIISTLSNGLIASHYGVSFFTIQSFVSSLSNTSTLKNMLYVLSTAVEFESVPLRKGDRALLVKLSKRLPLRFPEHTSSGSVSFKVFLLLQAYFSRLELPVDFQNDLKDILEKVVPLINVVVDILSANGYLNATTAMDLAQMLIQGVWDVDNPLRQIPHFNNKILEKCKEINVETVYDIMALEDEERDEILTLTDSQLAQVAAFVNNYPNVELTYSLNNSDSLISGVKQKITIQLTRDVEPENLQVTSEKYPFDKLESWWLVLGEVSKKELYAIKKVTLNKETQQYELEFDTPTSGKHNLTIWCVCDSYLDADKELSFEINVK

Pre-mRNA-splicing factor 8 (Saccharomyces cerevisiae), P33334 H2387R, sequence (P33334 whole entry H2387R): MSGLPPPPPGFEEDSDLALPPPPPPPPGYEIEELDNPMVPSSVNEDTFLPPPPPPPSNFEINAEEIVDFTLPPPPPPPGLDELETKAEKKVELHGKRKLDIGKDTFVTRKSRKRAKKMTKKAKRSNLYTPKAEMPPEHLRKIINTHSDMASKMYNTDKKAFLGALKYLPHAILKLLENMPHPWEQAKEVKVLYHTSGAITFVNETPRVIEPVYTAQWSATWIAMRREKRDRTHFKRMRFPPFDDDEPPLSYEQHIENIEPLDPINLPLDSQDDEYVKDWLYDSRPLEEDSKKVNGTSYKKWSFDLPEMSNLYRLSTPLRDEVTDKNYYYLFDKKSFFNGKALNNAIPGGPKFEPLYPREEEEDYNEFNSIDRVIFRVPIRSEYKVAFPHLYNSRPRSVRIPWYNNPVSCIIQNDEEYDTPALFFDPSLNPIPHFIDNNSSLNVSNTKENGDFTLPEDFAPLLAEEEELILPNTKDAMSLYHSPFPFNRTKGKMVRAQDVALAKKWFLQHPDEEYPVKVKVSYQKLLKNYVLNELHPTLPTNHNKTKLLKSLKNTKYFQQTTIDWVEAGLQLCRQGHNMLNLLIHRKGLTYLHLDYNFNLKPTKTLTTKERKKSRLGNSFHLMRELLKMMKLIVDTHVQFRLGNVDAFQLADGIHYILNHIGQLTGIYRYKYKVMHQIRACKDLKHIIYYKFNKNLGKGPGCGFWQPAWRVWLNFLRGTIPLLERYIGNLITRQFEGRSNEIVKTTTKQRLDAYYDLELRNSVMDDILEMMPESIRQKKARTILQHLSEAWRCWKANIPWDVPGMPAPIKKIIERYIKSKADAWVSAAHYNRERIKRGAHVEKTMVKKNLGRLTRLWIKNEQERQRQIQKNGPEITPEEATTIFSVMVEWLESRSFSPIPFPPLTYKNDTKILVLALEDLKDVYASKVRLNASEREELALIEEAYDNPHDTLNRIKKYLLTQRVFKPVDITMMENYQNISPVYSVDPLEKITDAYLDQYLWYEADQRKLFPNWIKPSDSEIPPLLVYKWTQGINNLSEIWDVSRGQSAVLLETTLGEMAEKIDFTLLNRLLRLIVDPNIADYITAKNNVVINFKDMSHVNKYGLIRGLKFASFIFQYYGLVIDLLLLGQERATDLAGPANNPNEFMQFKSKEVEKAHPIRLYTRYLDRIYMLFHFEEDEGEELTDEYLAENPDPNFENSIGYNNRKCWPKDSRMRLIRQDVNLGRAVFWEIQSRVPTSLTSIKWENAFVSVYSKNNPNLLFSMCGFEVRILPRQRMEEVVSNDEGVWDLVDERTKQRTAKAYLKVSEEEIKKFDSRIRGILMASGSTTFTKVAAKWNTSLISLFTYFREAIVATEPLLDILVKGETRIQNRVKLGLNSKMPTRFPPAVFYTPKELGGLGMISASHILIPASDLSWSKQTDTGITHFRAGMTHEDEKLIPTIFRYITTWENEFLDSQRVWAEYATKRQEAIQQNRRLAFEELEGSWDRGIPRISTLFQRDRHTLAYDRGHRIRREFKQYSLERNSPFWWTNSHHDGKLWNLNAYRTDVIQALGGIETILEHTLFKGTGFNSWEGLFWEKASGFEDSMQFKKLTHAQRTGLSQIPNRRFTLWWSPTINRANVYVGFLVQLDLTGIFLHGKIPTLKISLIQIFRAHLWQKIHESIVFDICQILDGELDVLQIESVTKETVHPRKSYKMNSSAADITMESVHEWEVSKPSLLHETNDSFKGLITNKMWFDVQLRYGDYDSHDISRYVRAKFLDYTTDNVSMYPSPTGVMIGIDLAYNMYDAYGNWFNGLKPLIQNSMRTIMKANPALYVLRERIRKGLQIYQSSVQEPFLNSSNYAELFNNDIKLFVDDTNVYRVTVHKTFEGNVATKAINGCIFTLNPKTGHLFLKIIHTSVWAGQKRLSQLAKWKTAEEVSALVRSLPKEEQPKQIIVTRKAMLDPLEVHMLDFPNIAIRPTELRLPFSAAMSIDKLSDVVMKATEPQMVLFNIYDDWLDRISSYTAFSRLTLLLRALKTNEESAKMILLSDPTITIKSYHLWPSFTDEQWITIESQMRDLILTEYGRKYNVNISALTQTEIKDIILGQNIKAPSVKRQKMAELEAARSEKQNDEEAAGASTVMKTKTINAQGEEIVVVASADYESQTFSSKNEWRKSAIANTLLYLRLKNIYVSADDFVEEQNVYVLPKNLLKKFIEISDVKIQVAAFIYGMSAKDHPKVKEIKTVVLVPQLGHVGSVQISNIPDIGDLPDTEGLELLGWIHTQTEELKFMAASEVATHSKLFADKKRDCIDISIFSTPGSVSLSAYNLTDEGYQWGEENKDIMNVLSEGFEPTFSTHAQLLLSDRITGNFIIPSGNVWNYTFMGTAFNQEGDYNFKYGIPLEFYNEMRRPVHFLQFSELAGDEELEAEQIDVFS

Row | Substance | effect of a mutation on the interaction
1 | Pre-mRNA-splicing factor 8 (Saccharomyces cerevisiae), P33334 H2387R | disrupting interaction strength
2 | Pre-mRNA-splicing factor 8 (Saccharomyces cerevisiae), P33334 R2388G | disrupting interaction strength
3 | Pre-mRNA-splicing factor 8 (Saccharomyces cerevisiae), P33334 H2387P | disrupting interaction strength
4 | Pre-mRNA-splicing factor 8 (Saccharomyces cerevisiae), P33334 R2388K | disrupting interaction strength
